Residue numbers refer to the chain shown, from its start.
Columns and labels:
human C1s [1] = biological target: T1, human C1s (human, UniProt P09871 16-688); test: SPR; KD at pH 5.8 (3 uM Ca) over KD at pH 7.4 (1.2 mM Ca)
T1 construct: Analyte in the Biacore assays; also called hC1s; serum-derived human C1s (CompTech)
T1 sequence: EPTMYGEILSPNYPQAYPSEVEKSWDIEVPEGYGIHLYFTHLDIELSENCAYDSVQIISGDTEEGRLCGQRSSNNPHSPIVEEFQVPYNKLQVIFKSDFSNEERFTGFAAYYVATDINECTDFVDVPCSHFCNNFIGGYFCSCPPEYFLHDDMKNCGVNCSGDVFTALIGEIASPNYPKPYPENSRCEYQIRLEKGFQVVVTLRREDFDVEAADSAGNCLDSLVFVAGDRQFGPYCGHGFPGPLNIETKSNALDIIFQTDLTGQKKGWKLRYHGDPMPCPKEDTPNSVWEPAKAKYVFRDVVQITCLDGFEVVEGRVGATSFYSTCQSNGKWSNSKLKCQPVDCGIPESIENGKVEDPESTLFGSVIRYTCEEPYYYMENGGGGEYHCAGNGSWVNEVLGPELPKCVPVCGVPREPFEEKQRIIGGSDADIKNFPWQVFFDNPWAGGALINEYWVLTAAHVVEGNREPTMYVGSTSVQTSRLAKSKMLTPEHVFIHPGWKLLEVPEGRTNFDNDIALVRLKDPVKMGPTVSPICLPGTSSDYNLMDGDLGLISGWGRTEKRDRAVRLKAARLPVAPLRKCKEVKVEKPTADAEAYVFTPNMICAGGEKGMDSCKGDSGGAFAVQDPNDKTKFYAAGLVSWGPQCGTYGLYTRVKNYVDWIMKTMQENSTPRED
Description: (§1) Each antibody was captured onto the sensor surface by protein A/G. Antibody capture levels were aimed at 200 resonance unit (RU). Serum-derived human C1s (CompTech) or recombinant C1s prepared in EXAMPLE 1 was injected at 50 nM, followed by dissociation. The sensor surface was regenerated in each cycle with 10 mM Glycine-HCl, pH 1.5. […] The ratio of KD 5.8+ to KD 7.4+(“KD 5+/7+”) and that of KD 5.8− to KD 7.4+(“KD 5−/7+”) were calculated. When the KD 5+/7+ or KD 5−/7+ of a variant is larger than that of the parent antibody IPN009VH2-SG4GK/IPN009VK3-SK1, that variant is considered to be “pH”- or “pH and Ca”-dependent, respectively. When binding response in 5(+) buffer and/or in 5(−) buffer of a variant is much lower than that of IPN09VH2/IPN009VK3, that variant is also considered as “pH”- and/or “pH and Ca”-dependent. Therefore, such mutations are effective to generate “pH”- and/or “pH and Ca”-dependent antibody. To further enhance “pH” and/or “pH and Ca” dependency, a combination of histidine mutations was conducted. Antibodies with combinations of histidine mutations were evaluated using Biacore by the method described above.
(§2) C1_1IPN92H0033 (SEQ ID NO: 17)-SG4GK/IPN93L0024 (SEQ ID NO: 18)-SK1 (IPN92H0033/IPN93L0024) was selected for further optimization. Histidine, Lysine, Arginine, aspartic acid, glutamic acid, and glutamine scanning was conducted for CDRs and certain positions of FRs of IPN92H0033/IPN93L0024. Variants with a mutation were generated and purified, and evaluated using Biacore by the method mentioned above. All variants were evaluated using Biacore as mentioned above. Mutations that improved “pH” and/or “pH and Ca” dependency were selected for the combination.

human C1s [2] = biological target: T1, human C1s; test: SPR; KD at pH 5.8 (1.2 mM Ca) over KD at pH 7.4 (1.2 mM Ca)
Description: as §1, §2

human C1s [3] = biological target: T1, human C1s; test: SPR (Biacore T200, 37C), Ab captured on protein A/G; pH 5.8, 3 uM Ca
Description: as §1, §2

human C1s [4] = biological target: T1, human C1s; test: SPR (Biacore T200, 37C), Ab captured on protein A/G; pH 5.8, 1.2 mM Ca
Description: as §1, §2

B1: C1_IPN92H0162-SG4GK/IPN93L0024-SK1 (antibody, human IgG4 S228P, kappa, name in Kabat numbering, V domains shown)
VH: EVMLVESGGGLVKPGGSLRLSCAASGFTFSNYAMSWVRQAPGKGLEWVATISSGGSHTYKLDSVKGRFTISRDNSKDTLYLQMNSLRAEDTALYYCARLFTGHAMDYWGQGTLVTVSS
VL: QIVLTQSPATLSLSPGERATLSCTASSSVSSSYLHWYQQKPGKAPKLWIYSTSNLASGVPSRFSGSGSGTDYTLTISSLQPEDFATYYCHQYYRLHPITFGQGTKLEIKR
notes: Substitutions from IPN009VH2, Kabat numbering; also called IPN92H0162/IPN93L0024
- KD 5(-)/7(+) (human C1s [1]): 2.72
- KD 5(+)/7(+) (human C1s [2]): 6.4
- Kd (human C1s [3]): 4.89 nM
- koff (human C1s [3]): 0.00784 s⁻¹
- kon (human C1s [3]): 1.6e+06 M⁻¹ s⁻¹
- Kd (human C1s [4]): 11.5 nM
- koff (human C1s [4]): 0.00524 s⁻¹
- kon (human C1s [4]): 456000 M⁻¹ s⁻¹

B2: C1_IPN92H0165-SG4GK/IPN93L0024-SK1 (antibody, human IgG4 S228P, kappa, name in Kabat numbering, V domains shown)
VH: B1 VH with K60Y, L61D
VL: B1 VL
notes: Substitutions from IPN009VH2, Kabat numbering; also called IPN92H0165/IPN93L0024
- KD 5(-)/7(+) (human C1s [1]): 4.62
- KD 5(+)/7(+) (human C1s [2]): 2.1
- Kd (human C1s [3]): 8.18 nM
- koff (human C1s [3]): 0.715 s⁻¹
- kon (human C1s [3]): 8.74e+07 M⁻¹ s⁻¹
- Kd (human C1s [4]): 3.74 nM
- koff (human C1s [4]): 0.00228 s⁻¹
- kon (human C1s [4]): 608000 M⁻¹ s⁻¹

B3: C1_IPN92H0166-SG4GK/IPN93L0024-SK1 (antibody, human IgG4 S228P, kappa, name in Kabat numbering, V domains shown)
VH: B1 VH with K60Y, L61E
VL: B1 VL
notes: Substitutions from IPN009VH2, Kabat numbering; also called IPN92H0166/IPN93L0024
- KD 5(-)/7(+) (human C1s [1]): 3.84
- KD 5(+)/7(+) (human C1s [2]): 2.1
- Kd (human C1s [3]): 6.75 nM
- koff (human C1s [3]): 0.687 s⁻¹
- kon (human C1s [3]): 1.02e+08 M⁻¹ s⁻¹
- Kd (human C1s [4]): 3.77 nM
- koff (human C1s [4]): 0.00226 s⁻¹
- kon (human C1s [4]): 600000 M⁻¹ s⁻¹

B4: C1_IPN92H0188-SG4GK/IPN93L0024-SK1 (antibody, human IgG4 S228P, kappa, name in Kabat numbering, V domains shown)
VH: B1 VH with K60Y, K65D
VL: B1 VL
notes: Substitutions from IPN009VH2, Kabat numbering; also called IPN92H0188/IPN93L0024
- KD 5(-)/7(+) (human C1s [1]): 2.07
- KD 5(+)/7(+) (human C1s [2]): 4
- Kd (human C1s [3]): 4.21 nM
- koff (human C1s [3]): 0.0106 s⁻¹
- kon (human C1s [3]): 2.53e+06 M⁻¹ s⁻¹
- Kd (human C1s [4]): 8.21 nM
- koff (human C1s [4]): 0.00413 s⁻¹
- kon (human C1s [4]): 504000 M⁻¹ s⁻¹

B5: C1_IPN92H0193-SG4GK/IPN93L0024-SK1 (antibody, human IgG4 S228P, kappa, name in Kabat numbering, V domains shown)
VH: B1 VH with K60Y, G66D
VL: B1 VL
notes: Substitutions from IPN009VH2, Kabat numbering; also called IPN92H0193/IPN93L0024
- KD 5(-)/7(+) (human C1s [1]): 3.47
- KD 5(+)/7(+) (human C1s [2]): 6.2
- Kd (human C1s [3]): 3.21 nM
- koff (human C1s [3]): 0.0685 s⁻¹
- kon (human C1s [3]): 2.14e+07 M⁻¹ s⁻¹
- Kd (human C1s [4]): 5.74 nM
- koff (human C1s [4]): 0.00417 s⁻¹
- kon (human C1s [4]): 727000 M⁻¹ s⁻¹

B6: C1_IPN92H0194-SG4GK/IPN93L0024-SK1 (antibody, human IgG4 S228P, kappa, name in Kabat numbering, V domains shown)
VH: B1 VH with K60Y, G66E
VL: B1 VL
notes: Substitutions from IPN009VH2, Kabat numbering; also called IPN92H0194/IPN93L0024
- KD 5(-)/7(+) (human C1s [1]): 7.29
- KD 5(+)/7(+) (human C1s [2]): 6.5
- Kd (human C1s [3]): 6.45 nM
- koff (human C1s [3]): 0.00517 s⁻¹
- kon (human C1s [3]): 802000 M⁻¹ s⁻¹
- Kd (human C1s [4]): 5.72 nM
- koff (human C1s [4]): 0.00429 s⁻¹
- kon (human C1s [4]): 751000 M⁻¹ s⁻¹

B7: C1_IPN92H0231-SG4GK/IPN93L0024-SK1 (antibody, human IgG4 S228P, kappa, name in Kabat numbering, V domains shown)
VH: B1 VH with K60Y, G102K
VL: B1 VL
notes: Substitutions from IPN009VH2, Kabat numbering; also called IPN92H0231/IPN93L0024
- KD 5(-)/7(+) (human C1s [1]): 4.06
- KD 5(+)/7(+) (human C1s [2]): 7.4
- Kd (human C1s [3]): 5.28 nM
- koff (human C1s [3]): 0.00674 s⁻¹
- kon (human C1s [3]): 1.28e+06 M⁻¹ s⁻¹
- Kd (human C1s [4]): 9.59 nM
- koff (human C1s [4]): 0.00544 s⁻¹
- kon (human C1s [4]): 568000 M⁻¹ s⁻¹

B8: C1_IPN92H0232-SG4GK/IPN93L0024-SK1 (antibody, human IgG4 S228P, kappa, name in Kabat numbering, V domains shown)
VH: B1 VH with K60Y, G102R
VL: B1 VL
notes: Substitutions from IPN009VH2, Kabat numbering; also called IPN92H0232/IPN93L0024
- KD 5(-)/7(+) (human C1s [1]): 3.46
- KD 5(+)/7(+) (human C1s [2]): 5.7
- Kd (human C1s [3]): 5.19 nM
- koff (human C1s [3]): 0.0173 s⁻¹
- kon (human C1s [3]): 3.23e+06 M⁻¹ s⁻¹
- Kd (human C1s [4]): 8.49 nM
- koff (human C1s [4]): 0.00485 s⁻¹
- kon (human C1s [4]): 570000 M⁻¹ s⁻¹

B9: C1_IPN92H0253-SG4GK/IPN93L0024-SK1 (antibody, human IgG4 S228P, kappa, name in Kabat numbering, V domains shown)
VH: B1 VH with K60Y, D106K
VL: B1 VL
notes: Substitutions from IPN009VH2, Kabat numbering; also called IPN92H0253/IPN93L0024
- KD 5(-)/7(+) (human C1s [1]): 210
- KD 5(+)/7(+) (human C1s [2]): 12.6
- Kd (human C1s [3]): 25.4 nM
- koff (human C1s [3]): 0.0147 s⁻¹
- kon (human C1s [3]): 578000 M⁻¹ s⁻¹
- Kd (human C1s [4]): 1.52 nM
- koff (human C1s [4]): 0.000717 s⁻¹
- kon (human C1s [4]): 471000 M⁻¹ s⁻¹

B10: C1_IPN92H0261-SG4GK/IPN93L0091-SK1 (antibody, human IgG4 S228P, kappa, name in Kabat numbering, V domains shown)
VH: B1 VH with K60E, G102K
VL: B1 VL with Y33R
notes: Substitutions from IPN009VH2 / IPN009VK3, Kabat numbering; also called IPN92H0261/IPN93L0091
- KD 5(-)/7(+) (human C1s [1]): 12.3
- KD 5(+)/7(+) (human C1s [2]): 16.3
- Kd (human C1s [3]): 12.1 nM
- koff (human C1s [3]): 0.00736 s⁻¹
- kon (human C1s [3]): 606000 M⁻¹ s⁻¹
- Kd (human C1s [4]): 16.1 nM
- koff (human C1s [4]): 0.00533 s⁻¹
- kon (human C1s [4]): 332000 M⁻¹ s⁻¹
